Laboratory results published in patent US20200247894A1 (Regeneron, published 2020).
Residue numbers refer to the chain shown, from its start. One block for each binder: values may come before it.

Columns and labels:
[1] = target: T1, Macaca fascicularis IL2Rγ extracellular domain expressed with a C-terminal myc-myc-hexahistidine tag (Macaca fascicularis); assay: SPR Biacore 4000, mAb captured by anti-hFc, 37C, dissociation in PBS-T pH 6.0
T1 construct: also called mfIL-2Rg-MMH; mfIL-2RG-MMH
T1 chain: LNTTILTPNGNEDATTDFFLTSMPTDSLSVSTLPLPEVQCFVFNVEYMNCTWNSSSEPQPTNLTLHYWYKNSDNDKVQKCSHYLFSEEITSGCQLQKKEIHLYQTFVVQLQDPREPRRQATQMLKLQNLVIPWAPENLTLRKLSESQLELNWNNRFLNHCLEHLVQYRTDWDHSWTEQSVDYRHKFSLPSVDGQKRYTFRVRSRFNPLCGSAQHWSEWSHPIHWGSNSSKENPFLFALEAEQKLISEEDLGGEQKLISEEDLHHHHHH
Description: (§1) The dissociation rate constant (kd) for binding of IL-2Rγ reagents to purified anti-IL2Rγ monoclonal antibodies was determined using a real-time surface plasmon resonance based Biacore 4000 biosensor platform. […] The CM5 Biacore sensor surface derivatized by amine coupling with monoclonal mouse anti-human Fc antibody (GE, Catalog # BR-1008-39) was used to capture anti-IL2Rγ monoclonal antibodies expressed with human IgG4 Fc. All the IL2Rγ reagents were expressed with a C-terminal myc-myc-hexahistidine tag (subsequently referred to with a -MMH suffix). […] The dissociation of bound IL-2Rg-MMH was performed in PBS-T-pH7.4 or PBS-T-pH6.0 running buffers for 6 minutes.
(§2) Dissociation rate constants (kd) in two running buffers were determined by fitting the real-time binding sensorgrams to a 1:1 binding model using Scrubber 2.0c curve-fitting software. Values of dissociation rate for […] mAb binding to hIL-2RG-MMH and mfIL-2RG-MMH at 25° C. and 37° C. in PBS-T-pH7.4 and PBS-T-pH6.0 is shown in Table 2-1 through Table 2-8.

[2] = target: T2, Human IL2Rγ extracellular domain expressed with a C-terminal myc-myc-hexahistidine tag (human); assay: SPR Biacore 4000, mAb captured by anti-hFc, HBS-ET, 37C
T2 construct: also called hIL-2Rg-MMH; hIL-2RG-MMH
T2 chain: T1 chain with A14T, T16A, S22T, R141H, S228T
Description: (§3) Equilibrium dissociation constants (KD values) for IL-2Rγ binding to purified anti-IL2Rγ monoclonal antibodies were determined using a Biacore 4000 instrument equipped with a real-time surface plasmon resonance biosensor. All binding studies were performed in 10 mM HEPES, 150 mM NaCl, 3 mM EDTA, and 0.05% v/v Surfactant Tween-20, pH 7.4 (HBS-ET) running buffer at 25° C. and 37° C. The Biacore sensor surface was first derivatized by amine coupling with a monoclonal mouse anti-human Fc antibody (GE, # BR-1008-39) to capture anti-IL2Rγ monoclonal antibodies.
(§4) The dissociation of monoclonal antibody bound IL2Rγ reagents were monitored for 8-10 minutes in HBS-ET running buffer. Kinetic association (kₐ) and dissociation (kd) rate constants were determined by fitting the real-time sensorgrams to a 1:1 binding model using Scrubber 2.0c curve fitting software. Binding dissociation equilibrium constants (KD) and dissociative half-lives (t_{1/2}) were calculated from the kinetic rate constants as: […]

[3] = target: T1, Macaca fascicularis IL2Rγ extracellular …; assay: SPR Biacore 4000, mAb captured by anti-hFc, 37C, dissociation in PBS-T pH 7.4
Description: as §1, §2

[4] = target: T2, Human IL2Rγ extracellular domain …; assay: SPR Biacore 4000, mAb captured by anti-hFc, HBS-ET, 25C
Description: as §3, §4

[5] = target: T1, Macaca fascicularis IL2Rγ extracellular …; assay: as above
Description: as §3, §4

- 100 nM Ag Bound (RU) [1]: 135 RU
- koff [1]: 0.00335 s⁻¹
- t1/2 [1]: 3.4 min
- 100 nM Ag Bound [2]: 62 RU
- Kd [2]: 13.1 nM
- koff [2]: 0.00336 s⁻¹
- kon [2]: 257000 M⁻¹ s⁻¹
- t1/2 [2]: 3.4 min
- 100 nM Ag Bound (RU) [3]: 171 RU
- koff [3]: 0.00147 s⁻¹
- t1/2 [3]: 8 min
- 100 nM Ag Bound [4]: 84 RU
- Kd [4]: 6.96 nM
- koff [4]: 0.00139 s⁻¹
- kon [4]: 199000 M⁻¹ s⁻¹
- t1/2 [4]: 8 min
- 100 nM Ag Bound [5]: 82 RU
- Kd [5]: 6.98 nM
- koff [5]: 0.00121 s⁻¹
- kon [5]: 174000 M⁻¹ s⁻¹
- t1/2 [5]: 10 min
B1: H4H12884P (antibody, human IgG4 S228P, kappa, V domains shown)
VH: QVQLQESGPGLVKPSQTLSLTCTVSGGSISSGGYYWSWIRQHPGKGLEWIGFIYYSGKTYYNPSLKSRLTISVDTSKSQFSLKLRSVTAADTAVYYCARLGYTNSAGWFDPWGQGTLVTVSS
VL: DIQMTQSPSSLSASVGDRVTITCRASQSISSYLNWYQQKPGKAPNLLIYAASSLQSGVPSRFSGSGSGTDFTLTISSLQPEDLATYYCQQSYTTPFTFGPGTKVDIKR
notes: anti-IL2Rγ monoclonal antibody expressed with human IgG4 Fc

- 100 nM Ag Bound (RU) [1]: 71 RU
- koff [1]: 0.00276 s⁻¹
- t1/2 [1]: 4 min
- 100 nM Ag Bound [2]: 27 RU
- Kd [2]: 14 nM
- koff [2]: 0.00133 s⁻¹
- kon [2]: 95100 M⁻¹ s⁻¹
- t1/2 [2]: 9 min
- 100 nM Ag Bound (RU) [3]: 82 RU
- koff [3]: 0.000624 s⁻¹
- t1/2 [3]: 19 min
- 100 nM Ag Bound [4]: 48 RU
- Kd [4]: 4.91 nM
- koff [4]: 0.000333 s⁻¹
- kon [4]: 67900 M⁻¹ s⁻¹
- t1/2 [4]: 35 min
- 100 nM Ag Bound [5]: 37 RU
- Kd [5]: 5.16 nM
- koff [5]: 0.000313 s⁻¹
- kon [5]: 60600 M⁻¹ s⁻¹
- t1/2 [5]: 37 min
B2: H4H12890P (antibody, human IgG4 S228P, kappa, V domains shown)
VH: EVQLVESGGGLVQPGGSLRLSCAASGFTFNNYAMHWVRQAPGKGLEYVSSISSSGGSTYYEDSVKGRFTISRDNSKNTLYLQMGSLRAEDMAVYYCARSFYGSGTYYDTFDMWGQGTMVTVSS
VL: B1 VL with V15I, S31R, N45K, G64A, L83F, T93S, P100Q, V104L, D105E
notes: as for B1

- 100 nM Ag Bound (RU) [1]: 52 RU
- koff [1]: 0.00131 s⁻¹
- t1/2 [1]: 9 min
- 100 nM Ag Bound [2]: 16 RU
- Kd [2]: 29.2 nM
- koff [2]: 0.00141 s⁻¹
- kon [2]: 48300 M⁻¹ s⁻¹
- t1/2 [2]: 8 min
- 100 nM Ag Bound (RU) [3]: 55 RU
- koff [3]: 0.000514 s⁻¹
- t1/2 [3]: 22 min
- 100 nM Ag Bound [4]: 19 RU
- Kd [4]: 8.61 nM
- koff [4]: 0.000285 s⁻¹
- kon [4]: 33100 M⁻¹ s⁻¹
- t1/2 [4]: 41 min
- 100 nM Ag Bound [5]: 14 RU
- Kd [5]: 7.37 nM
- koff [5]: 0.000237 s⁻¹
- kon [5]: 32200 M⁻¹ s⁻¹
- t1/2 [5]: 49 min
B3: H4H12908P (antibody, human IgG4 S228P, kappa, V domains shown)
VH: EVQLVESGGRLVQPGGSLRLSCEASGFTFSNYGMTWVRQAPGKGLEWVSVISGSDNRKYYAESVKGRFTISRDNSKNTLYLQMNSLRAEDTAVYYCAKLGYSRSSKDFYYGMDVWGQGTTVTVSS
VL: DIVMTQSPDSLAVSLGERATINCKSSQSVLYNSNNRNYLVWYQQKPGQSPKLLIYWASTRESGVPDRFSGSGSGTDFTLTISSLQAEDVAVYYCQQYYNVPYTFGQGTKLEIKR
notes: as for B1

- 100 nM Ag Bound (RU) [1]: 109 RU
- koff [1]: 0.00197 s⁻¹
- t1/2 [1]: 6 min
- 100 nM Ag Bound [2]: 52 RU
- Kd [2]: 15.4 nM
- koff [2]: 0.000956 s⁻¹
- kon [2]: 61900 M⁻¹ s⁻¹
- t1/2 [2]: 12 min
- 100 nM Ag Bound (RU) [3]: 145 RU
- koff [3]: 0.000471 s⁻¹
- t1/2 [3]: 25 min
- 100 nM Ag Bound [4]: 60 RU
- Kd [4]: 2.02 nM
- koff [4]: 0.00027 s⁻¹
- kon [4]: 134000 M⁻¹ s⁻¹
- t1/2 [4]: 43 min
- 100 nM Ag Bound [5]: 57 RU
- Kd [5]: 2.45 nM
- koff [5]: 0.000266 s⁻¹
- kon [5]: 109000 M⁻¹ s⁻¹
- t1/2 [5]: 43 min
B4: H4H12886P (antibody, human IgG4 S228P, kappa, V domains shown)
VH: EVQLVESGGGLVKPGGSLRLSCAASGFTFSTAWMSWVRQSPGRGLEWVGRMKSKTDGGTTFYAAPVKGRFTISRDDSKNTLYLQMNSLKTEDTAVYYCTTGLVPAFYKYYGVDVWGQGTTVTVSS
VL: DIQMTQSPSSLSASVGDRITITCQASQDITNYLNWYQQKPGKAPNLLIYDASNLVTGVPSRFSGSGSGTDFTFTILSLQPEDIATYYCQQYDSLLTFGPGTKVDIKR
notes: as for B1

- 100 nM Ag Bound (RU) [1]: 122 RU
- koff [1]: 0.00211 s⁻¹
- t1/2 [1]: 5 min
- 100 nM Ag Bound [2]: 36 RU
- Kd [2]: 7.27 nM
- koff [2]: 0.00249 s⁻¹
- kon [2]: 342000 M⁻¹ s⁻¹
- t1/2 [2]: 5 min
- 100 nM Ag Bound (RU) [3]: 160 RU
- koff [3]: 0.000552 s⁻¹
- t1/2 [3]: 21 min
- 100 nM Ag Bound [4]: 61 RU
- Kd [4]: 2.51 nM
- koff [4]: 0.000458 s⁻¹
- kon [4]: 182000 M⁻¹ s⁻¹
- t1/2 [4]: 25 min
- 100 nM Ag Bound [5]: 54 RU
- Kd [5]: 4.01 nM
- koff [5]: 0.000407 s⁻¹
- kon [5]: 102000 M⁻¹ s⁻¹
- t1/2 [5]: 28 min
B5: H4H12899P (antibody, human IgG4 S228P, kappa, V domains shown)
VH: QVQLVESGGDLVKPGGSLRLSCATSGFTFSDFYMTWIRQAPGKGLEWISYISNSGSIVKYADSVKGRFTISRDNAKNSLYLQMNSLRAEDTAIYYCARFYGDRWGQGTLVTVSS
VL: DIQLTQSPSFLSASVGDRVTITCWASQGISTFLAWYQQKPGKAPKLLIYAASTLQSGVPSRFSGSGSGTDFTLTISSLQPEDFATYHCQQLNNYPWTFGQGTKVEIKR
notes: as for B1

- 100 nM Ag Bound (RU) [1]: 130 RU
- koff [1]: 0.00277 s⁻¹
- t1/2 [1]: 4 min
- 100 nM Ag Bound [2]: 43 RU
- Kd [2]: 3.66 nM
- koff [2]: 0.00184 s⁻¹
- kon [2]: 503000 M⁻¹ s⁻¹
- t1/2 [2]: 6 min
- 100 nM Ag Bound (RU) [3]: 166 RU
- koff [3]: 0.000623 s⁻¹
- t1/2 [3]: 19 min
- 100 nM Ag Bound [4]: 79 RU
- Kd [4]: 1.29 nM
- koff [4]: 0.000379 s⁻¹
- kon [4]: 293000 M⁻¹ s⁻¹
- t1/2 [4]: 30 min
- 100 nM Ag Bound [5]: 71 RU
- Kd [5]: 1.44 nM
- koff [5]: 0.000335 s⁻¹
- kon [5]: 232000 M⁻¹ s⁻¹
- t1/2 [5]: 34 min
B6: H4H12900P (antibody, human IgG4 S228P, kappa, V domains shown)
VH: QVQLVESGGGLVKPGGSLRLSCEASGFTFNDFYMTWIRQAPGKGLEWIAYISKSGDKMRYADSVKGRFSTSRDNAKNSLSLQMNSLRAEDTAVYYCARFYGDIWGQGTLVTVSS
VL: B5 VL with G28D, T31S, A34V, K45N, T53A, D70E, T85S, H87Y, Q89E
notes: as for B1

- 100 nM Ag Bound (RU) [1]: 148 RU
- koff [1]: 0.00183 s⁻¹
- t1/2 [1]: 6 min
- 100 nM Ag Bound [2]: 32 RU
- Kd [2]: 3.99 nM
- koff [2]: 0.00185 s⁻¹
- kon [2]: 465000 M⁻¹ s⁻¹
- t1/2 [2]: 6 min
- 100 nM Ag Bound (RU) [3]: 147 RU
- koff [3]: 0.000578 s⁻¹
- t1/2 [3]: 20 min
- 100 nM Ag Bound [4]: 64 RU
- Kd [4]: 1.41 nM
- koff [4]: 0.00042 s⁻¹
- kon [4]: 298000 M⁻¹ s⁻¹
- t1/2 [4]: 28 min
- 100 nM Ag Bound [5]: 59 RU
- Kd [5]: 1.74 nM
- koff [5]: 0.000404 s⁻¹
- kon [5]: 233000 M⁻¹ s⁻¹
- t1/2 [5]: 29 min
B7: H4H12889P (antibody, human IgG4 S228P, kappa, V domains shown)
VH: EVQLVESGGGLVQPGGSLRLSCAASGFIFSSYEMHWVRQAPGKGLEWISYISSSGTTIYYADSVKGRFTISRDNAKNSLYLHMNSLRAEDTAVYYCTRARITGTFDVFDIWGQGTMVTVSS
VL: DIQMTQSPSSLSASVGDRVTITCRASQSISSYLNWYQQKPGKAPKLLIFAASNLQSGVPSRFSGSRSGTDFTLTISSLQPEDFATYYCQQNYNIPYTFGQGTKLEIKR
notes: anti-IL2Rγ monoclonal antibody expressed with human IgG4 Fc; also called REGN7257
